Laboratory results: patent US20250011413A1 (MCMASTER UNIVERSITY, published 2025)

What was measured:
[1] = target: T1, Human PF4 (CXCL4), biotinylated, without heparin (human, UniProt P02776 32-101, biotinylated with EZ-link-Sulfo-NHS-LC-Biotin (sites not given)); assay: BLI (Octet), biotinylated PF4 without heparin on streptavidin sensors, 1:1 model; scFv at 0.25 µg/mL (response near baseline)
T1 construct: Immobilised on streptavidin biosensors for BLI; also called PF4 alone; platelet factor 4
T1 sequence: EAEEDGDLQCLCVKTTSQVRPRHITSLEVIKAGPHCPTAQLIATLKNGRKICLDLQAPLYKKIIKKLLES
Description: All data was analyzed based on a 1:1 homogenous ligand binding model using Octet® User Software version 3.1.
The Octet-QK Red 96 (FortéBio, Menlo Park, CA) instrumentation was used to conduct all BLI experiments. A 96-well microtiter plate (black, flat-bottom) was used to hold 200 μL per well of either sample or buffer. Pre-coated streptavidin biosensor tips (FortéBio) were hydrated in phosphate buffered saline (PBS) containing 1% bovine serum albumin (BSA, Sigma-Aldrich) before performing all kinetic assays. Each step was performed at an operating temperature of 23° C. with agitation at 1000 rpm. Streptavidin tips were first equilibrated in PBS+1% BSA to establish a baseline. […] The PF4-coated tips were then dipped into PBS+1% BSA for 13 minutes to re-establish a baseline. Tips were then incubated in an analyte solution containing half-fold dilutions of wildtype scFv (4.0, 2.0, 1.0, 0.5, 0.25 μg/mL in PBS+1% BSA) for 10 minutes to measure association. For mutant scFv association, tips were incubated in an analyte solution containing 200 μL of each mutant and wildtype scFv at a final concentration of 1 μg/mL in PBS+1% BSA. […] The following negative controls included in these kinetic experiments were also measured: 200 μL of buffer to replace both the antigen and scFv and 200 μL buffer replacing scFv only. […]

[2] = target: T2, PF4/heparin complex (human PF4 complexed with heparin) (human, UniProt P02776 32-101); assay: BLI (Octet), biotinylated PF4/heparin on streptavidin sensors, 1:1 model; scFv at 2.0 µg/mL
T2 construct: Multimeric complex of PF4 with heparin (not a protein); In the EIAs: PF4 captured on biotinylated heparin on streptavidin plates; In the SRA: platelets with 0.2 U/mL heparin; also called PF4 and heparin complexes
T2 sequence: T1 sequence
Description: (§1) The Octet-QK Red 96 (FortéBio, Menlo Park, CA) instrumentation was used to conduct all BLI experiments. A 96-well microtiter plate (black, flat-bottom) was used to hold 200 μL per well of either sample or buffer. Pre-coated streptavidin biosensor tips (FortéBio) were hydrated in phosphate buffered saline (PBS) containing 1% bovine serum albumin (BSA, Sigma-Aldrich) before performing all kinetic assays. Each step was performed at an operating temperature of 23° C. with agitation at 1000 rpm. Streptavidin tips were first equilibrated in PBS+1% BSA to establish a baseline. […] The PF4-coated tips were then dipped into PBS+1% BSA for 13 minutes to re-establish a baseline. Tips were then incubated in an analyte solution containing half-fold dilutions of wildtype scFv (4.0, 2.0, 1.0, 0.5, 0.25 μg/mL in PBS+1% BSA) for 10 minutes to measure association. For mutant scFv association, tips were incubated in an analyte solution containing 200 μL of each mutant and wildtype scFv at a final concentration of 1 μg/mL in PBS+1% BSA. Antibody dissociation steps were performed by dipping sensors in wells containing PBS+1% BSA for 56 minutes. The following negative controls included in these kinetic experiments were also measured: 200 μL of buffer to replace both the antigen and scFv and 200 μL buffer replacing scFv only. Each experiment was performed with PF4 or with PF4/heparin as the immobilized antigen.
(§2) BLI experiments were performed to evaluate binding responses and affinities of wildtype and mutant scFv. Biotinylated PF4 alone or complexed with heparin was immobilized on streptavidin biosensors and used to capture wildtype scFv. Half-fold serial dilutions of wildtype scFv ranging from 0.25 μg/mL to 4 μg/mL were used to determine the optimal concentrations for future experiments PF4 (PF4 FIG. 3; PF4/heparin FIG. 4).

[3] = target: T2, PF4/heparin complex (human PF4 …); assay: BLI (Octet), biotinylated PF4/heparin on streptavidin sensors, 1:1 model; scFv at 0.25 µg/mL (response near baseline, software limit value)
Description: as §1, with “antigen. […]” for “antigen.”

[4] = target: T1, Human PF4 (CXCL4), biotinylated, …; assay: BLI (Octet), biotinylated PF4 without heparin on streptavidin sensors, 1:1 model; scFv at 1.0 µg/mL
Description: as §1, §2

[5] = target: T1, Human PF4 (CXCL4), biotinylated, …; assay: BLI (Octet), biotinylated PF4 without heparin on streptavidin sensors, 1:1 model; scFv at 2.0 µg/mL
Description: as §1, §2

[6] = target: T2, PF4/heparin complex (human PF4 …); assay: BLI (Octet), biotinylated PF4/heparin on streptavidin sensors, 1:1 model; scFv at 0.5 µg/mL (response near baseline)
Description: as §1, with “antigen. […]” for “antigen.”

[7] = target: T2, PF4/heparin complex (human PF4 …); assay: BLI (Octet), biotinylated PF4/heparin on streptavidin sensors, 1:1 model; scFv at 4.0 µg/mL
Description: as §1, §2

[8] = target: T2, PF4/heparin complex (human PF4 …); assay: BLI (Octet), biotinylated PF4/heparin on streptavidin sensors, 1:1 model; scFv at 0.25 µg/mL (response near baseline)
Description: as §1, with “antigen. […]” for “antigen.”

[9] = target: T2, PF4/heparin complex (human PF4 …); assay: BLI (Octet), biotinylated PF4/heparin on streptavidin sensors, 1:1 model; scFv at 1.0 µg/mL
Description: as §1, §2

[10] = target: T1, Human PF4 (CXCL4), biotinylated, …; assay: BLI (Octet), biotinylated PF4 without heparin on streptavidin sensors, 1:1 model; scFv at 0.5 µg/mL
Description: as §1, §2

[11] = target: T2, PF4/heparin complex (human PF4 …); assay: BLI (Octet), biotinylated PF4/heparin on streptavidin sensors, 1:1 model; scFv at 0.5 µg/mL (response near baseline, software limit value)
Description: as §1, with “antigen. […]” for “antigen.”

koff [1]: 0.021 s⁻¹
Kd [2]: 9.18 nM
koff [2]: 0.000571 s⁻¹
kon [2]: 62100 M⁻¹ s⁻¹
Kd [3]: < 1 pM
Kd [4]: 5.71 nM
koff [4]: 0.000853 s⁻¹
kon [4]: 149000 M⁻¹ s⁻¹
Kd [5]: 9.59 nM
koff [5]: 0.000515 s⁻¹
kon [5]: 53800 M⁻¹ s⁻¹
koff [6]: 0.00504 s⁻¹
Kd [7]: 39.3 nM
koff [7]: 0.000871 s⁻¹
kon [7]: 22200 M⁻¹ s⁻¹
koff [8]: 0.00042 s⁻¹
Kd [9]: 0.961 nM
koff [9]: 0.000264 s⁻¹
kon [9]: 274000 M⁻¹ s⁻¹
Kd [10]: 34.5 nM
koff [10]: 0.0037 s⁻¹
kon [10]: 107000 M⁻¹ s⁻¹
Kd [11]: < 1 pM
B1: Wildtype scFv (KKO-derived single chain variable fragment) (scFv)
scFv: DIQMIQSQKFMSTSVGDRVTVTCKASQNVGTNVAWYQQKPGQSPNALIYSASYRYSGVPDRFTGSGSGTDFTLTITNVQSEDLADYFCQQYNSYPLTFGTGTKLDLKGGGGSGGGGSGGGGSVQLQQSGAELVKPGASVKLSCKASGYTFTNYFIYWVKQRPGQGLEWIGEINPRNGDTDFNEKFESRATLTVDKSSSTAYMQLSSLTSEDSAIYYCTRSPYGNNYGFTYWGQGTLVTVSA
notes: VL-(G4S)3 linker-VH; expressed in E. coli BL21 from pADL-22c, purified on Ni-NTA as histidine-tagged scFv, about 28 kDa; also called WT; KKO-scFv; not shown: histidine tag from the pADL-22c vector
